Reference: patent US10538585 (dated 2020)
Like-named read-outs stand apart in the source and are kept apart here.

Assays:
[1] = target: T1, human ANG2-RBD-Fc (human, UniProt O15123); assay: SPR
T1 chain: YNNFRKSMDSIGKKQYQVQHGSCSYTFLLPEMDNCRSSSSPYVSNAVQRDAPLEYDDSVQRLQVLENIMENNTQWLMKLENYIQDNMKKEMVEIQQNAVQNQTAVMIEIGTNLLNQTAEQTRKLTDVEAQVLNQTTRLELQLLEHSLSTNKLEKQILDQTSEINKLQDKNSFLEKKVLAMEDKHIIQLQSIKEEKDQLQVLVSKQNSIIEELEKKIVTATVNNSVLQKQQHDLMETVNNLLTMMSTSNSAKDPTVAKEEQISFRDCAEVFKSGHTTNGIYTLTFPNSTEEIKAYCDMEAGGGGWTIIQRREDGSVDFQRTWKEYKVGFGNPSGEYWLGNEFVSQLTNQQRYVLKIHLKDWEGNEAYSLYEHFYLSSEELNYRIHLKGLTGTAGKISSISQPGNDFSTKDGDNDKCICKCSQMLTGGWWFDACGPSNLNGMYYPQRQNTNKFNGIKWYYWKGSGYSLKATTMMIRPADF

[2] = target: T1, human ANG2-RBD-Fc; assay: SPR
[3] = target: T1, human ANG2-RBD-Fc; assay: SPR
[4] = target: T1, human ANG2-RBD-Fc; assay: SPR
[5] = target: T2, human ANG2 (human, UniProt O15123); assay: competition, Tie2 binding inhibition (pTie2 ELISA)
T2 chain: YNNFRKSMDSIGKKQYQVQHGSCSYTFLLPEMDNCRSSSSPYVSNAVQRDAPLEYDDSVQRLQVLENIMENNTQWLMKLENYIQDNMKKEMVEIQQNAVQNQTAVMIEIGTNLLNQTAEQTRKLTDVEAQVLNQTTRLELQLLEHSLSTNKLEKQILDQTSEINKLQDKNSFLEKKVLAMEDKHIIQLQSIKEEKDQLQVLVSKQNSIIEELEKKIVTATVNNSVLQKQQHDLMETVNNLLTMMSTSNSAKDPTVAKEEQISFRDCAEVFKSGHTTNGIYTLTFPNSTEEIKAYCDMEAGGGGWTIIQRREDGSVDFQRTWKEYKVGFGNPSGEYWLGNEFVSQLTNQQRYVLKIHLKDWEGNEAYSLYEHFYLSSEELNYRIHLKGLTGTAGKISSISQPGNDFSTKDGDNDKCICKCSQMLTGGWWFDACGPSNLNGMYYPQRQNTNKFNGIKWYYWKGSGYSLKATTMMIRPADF

[6] = target: T1, human ANG2-RBD-Fc; assay: SPR
[7] = target: T1, human ANG2-RBD-Fc; assay: SPR bivalent
[8] = target: T1, human ANG2-RBD-Fc; assay: SPR bivalent
[9] = target: T2, human ANG2; assay: competition, Tie2 binding inhibition (pTie2 ELISA)
[10] = target: T1, human ANG2-RBD-Fc; assay: SPR
[11] = target: T1, human ANG2-RBD-Fc; assay: SPR
[12] = target: T2, human ANG2; assay: competition, Tie2 binding inhibition (pTie2 ELISA)

B1: 0033 (antibody, V domains shown)
VH: not shown
VL: SYVLTQPPSVSVAPGQTARITCGGNNIGSKSVHWYQQKPGQAPVLVVYDDSDRPSGIPERFSGSNSGNTATLTISRVEAGDEADYYCQVWDSSSDHWVFGGGTKLTVLS
Kd [1]: 3 nM

B2: 0061 (antibody, V domains shown)
VH: not shown
VL: SYVLTQPPSVSVAPGQTARITCGGNNIGSKSVHWYQQKPGQAPVLVVYDTSDRPSGIPERFSGSNSGNTATLTISRVEAGDEADYYCQVWDSSSDHWVFGGGTKLTVLS
Kd [2]: 18 nM

B3: 0164 ANG2 arm (antibody, V domains shown)
VH: not shown
VL: QPGLTQPPSVSVAPGQTARITCGGNNIGSKSVHWYQQKPGQAPVLVVYDTSDRPSGIPERFSGSNSGNTATLTISRVEAGDEADYYCQVWDSSSDHYVFGTGTKVTVLS
Kd [3]: 39 nM

B4: 0090 (antibody)
chain 1: not shown
chain 2: SYVLTQPPSVSVAPGQTARITCGGNNIGSKSVHWYQQKPGQAPVLVVYDTSDRPSGIPERFSGSNSGNTATLTISRVEAGDEADYYCQVWDSSSDHWVFGGGTKLTVLSSASTKGPSVFPLAPSSKSTSGGTAALGCLVKDYFPEPVTVSWNSGALTSGVHTFPAVLQSSGLYSLSSVVTVPSSSLGTQTYICNVNHKPSNTKVDKKVEPKSC
Kd [4]: 1 nM | EC50 [5]: 7 nM | Kd [6]: 1 nM

B5: 0057 (antibody, V domains shown)
VH: not shown
VL: SYVLTQPPSVSVAPGQTARITCGGNNIGSKSVHWYQQKPGQAPVLVVYDDSDRPSGIPERFSGSNSGNTATLTISRVEAGDEADYYCQVWDSSSDHWVFGGGTKLTVLS
Kd [2]: 29 nM

B6: 0165 ANG2 arm (antibody)
chain 1: not shown
chain 2: SYVLTQPPSVSVAPGQTARITCGGNNIGSKSVHWYQQKPGQAPVLVVYDTSDRPSGIPERFSGSNSGNTATLTISRVEAGDEADYYCQVWDSSSDHWVFGGGTKLTVLSSASTKGPSVFPLAPSSKSTSGGTAALGCLVKDYFPEPVTVSWNSGALTSGVHTFPAVLQSSGLYSLSSVVTVPSSSLGTQTYICNVNHKPSNTKVDKKVEPKSC
Kd [3]: 4 nM

B7: 0101 (antibody, V domains shown)
VH: not shown
VL: SYVLTQPPSVSVAPGQTARITCGGNNIGSKSVHWYQQKPGQAPVLVVYDTSDRPSGIPERFSGSNSGNTATLTISRVEAGDEADYYCQVWDSSSDHWVFGGGTKLTVLS
Kd [7]: 0.007 nM | Kd [8]: 0.007 nM | EC50 [9]: 3 nM

B8: 0040 (antibody, V domains shown)
VH: not shown
VL: SYVLTQPPSVSVAPGQTARITCGGNNIGSKSVHWYQQKPGQAPVLVVYDDSDRPSGIPERFSGSNSGNTATLTISRVEAGDEADYYCQVWDSSSDHWVFGGGTKLTVLS
Kd [2]: 23 nM

B9: 0166 ANG2 arm (antibody, V domains shown)
VH: not shown
VL: SYVLTQPPSVSVAPGQTARITCGGNNIGSKSVHWYQQKPGQAPVLVVYDTSDRPSGIPERFSGSNSGNTATLTISRVEAGDEADYYCQVWDSSSDHWVFGGGTKLTVLS
Kd [3]: 49 nM

B10: 0058 (antibody, V domains shown)
VH: not shown
VL: SYVLTQPPSVSVAPGQTARITCGGNNIGSKSVHWYQQKPGQAPVLVVYDDSDRPSGIPERFSGSNSGNTATLTISRVEAGDEADYYCQVWDSSSDHWVFGGGTKLTVLS
Kd [2]: 21 nM

B11: 0025 (antibody, V domains shown)
VH: not shown
VL: SYVLTQPPSVSVAPGQTARITCGGNNIGSKSVHWYQQKPGQAPVLVVYDDSDRPSGIPERFSGSNSGNTATLTISRVEAGDEADYYCQVWDSSSDHWVFGGGTKLTVLS
Kd [10]: 38 nM

B12: 0099 (antibody, V domains shown)
VH: not shown
VL: SYVLTQPPSVSVAPGQTARITCGGNNIGSKSVHWYQQKPGQAPVLVVYDDSDRPSGIPERFSGSNSGNTATLTISRVEAGDEADYYCQVWDSSSDHWVFGGGTKLTVLS
Kd [7]: 0.004 nM | Kd [8]: 0.004 nM | EC50 [9]: 3.2 nM

B13: 0075 (antibody, V domains shown)
VH: not shown
VL: SYVLTQPPSVSVAPGQTARITCGGNNIGSKSVHWYQQKPGQAPVLVVYDTSDRPSGIPERFSGSNSGNTATLTISRVEAGDEADYYCQVWDSSSDHWVFGGGTKLTVLS
Kd [4]: 14 nM | EC50 [5]: 39 nM | Kd [6]: 14 nM

B14: 0028 (antibody, V domains shown)
VH: not shown
VL: SYVLTQPPSVSVAPGQTARITCGGNNIGSKSVHWYQQKPGQAPVLVVYDDSDRPSGIPERFSGSNSGNTATLTISRVEAGDEADYYCQVWDSSSDHWVFGGGTKLTVLS
Kd [1]: 143 nM

B15: 0163 ANG2 arm (antibody, V domains shown)
VH: not shown
VL: QPGLTQPPSVSVAPGQTARITCGGNNIGSKSVHWYQQKPGQAPVLVVYDTSDRPSGIPERFSGSNSGNTATLTISRVEAGDEADYYCQVWDSSSDHYVFGTGTKVTVLS
Kd [3]: 4 nM

B16: 0027 (antibody, V domains shown)
VH: not shown
VL: SYVLTQPPSVSVAPGQTARITCGGNNIGSKSVHWYQQKPGQAPVLVVYDDSDRPSGIPERFSGSNSGNTATLTISRVEAGDEADYYCQVWDSSSDHWVFGGGTKLTVLS
Kd [1]: 69 nM

B17: 0026 (antibody, V domains shown)
VH: not shown
VL: SYVLTQPPSVSVAPGQTARITCGGNNIGSKSVHWYQQKPGQAPVLVVYDDSDRPSGIPERFSGSNSGNTATLTISRVEAGDEADYYCQVWDSSSDHWVFGGGTKLTVLS
Kd [10]: 18 nM

B18: 0017 (antibody, V domains shown)
VH: not shown
VL: SYVLTQPPSVSVAPGQTARITCGGNNIGSKSVHWYQQKPGQAPVLVVYDDSDRPSGIPERFSGSNSGNTATLTISRVEAGDEADYYCQVWDSSSDHWVFGGGTKLTVLS
Kd [10]: 12 nM

B19: 0155 (antibody, V domains shown)
VH: not shown
VL: QPGLTQPPSVSVAPGQTARITCGGNNIGSKSVHWYQQKPGQAPVLVVYDTSDRPSGIPERFSGSNSGNTATLTISRVEAGDEADYYCQVWDSSSDHYVFGTGTKVTVLS
Kd [11]: 43 nM

B20: 0041 (antibody, V domains shown)
VH: not shown
VL: SYVLTQPPSVSVAPGQTARITCGGNNIGSKSVHWYQQKPGQAPVLVVYDDSDRPSGIPERFSGSNSGNTATLTISRVEAGDEADYYCQVWDSSSDHWVFGGGTKLTVLS
Kd [2]: 1 nM | EC50 [12]: 5.4 nM | Kd [6]: 1 nM

B21: 0100 (antibody)
chain 1: not shown
chain 2: SYVLTQPPSVSVAPGQTARITCGGNNIGSKSVHWYQQKPGQAPVLVVYDTSDRPSGIPERFSGSNSGNTATLTISRVEAGDEADYYCQVWDSSSDHWVFGGGTKLTVLSSASTKGPSVFPLAPSSKSTSGGTAALGCLVKDYFPEPVTVSWNSGALTSGVHTFPAVLQSSGLYSLSSVVTVPSSSLGTQTYICNVNHKPSNTKVDKKVEPKSC
Kd [7]: 0.008 nM | Kd [8]: 0.008 nM | EC50 [9]: 3.2 nM

B22: 0074 (antibody, V domains shown)
VH: not shown
VL: SYVLTQPPSVSVAPGQTARITCGGNNIGSKSVHWYQQKPGQAPVLVVYDDSDRPSGIPERFSGSNSGNTATLTISRVEAGDEADYYCQVWDSSSDHWVFGGGTKLTVLS
Kd [4]: 16 nM

B23: 0060 (antibody, V domains shown)
VH: not shown
VL: SYVLTQPPSVSVAPGQTARITCGGNNIGSKSVHWYQQKPGQAPVLVVYDTSDRPSGIPERFSGSNSGNTATLTISRVEAGDEADYYCQVWDSSSDHWVFGGGTKLTVLS
Kd [2]: 21 nM

B24: 0156 (antibody, V domains shown)
VH: not shown
VL: QPGLTQPPSVSVAPGQTARITCGGNNIGSKSVHWYQQKPGQAPVLVVYDTSDRPSGIPERFSGSNSGNTATLTISRVEAGDEADYYCQVWDSSSDHYVFGTGTKVTVLS
Kd [11]: 5 nM

B25: 0042 (antibody, V domains shown)
VH: not shown
VL: SYVLTQPPSVSVAPGQTARITCGGNNIGSKSVHWYQQKPGQAPVLVVYDDSDRPSGIPERFSGSNSGNTATLTISRVEAGDEADYYCQVWDSSSDHWVFGGGTKLTVLS
Kd [2]: 4 nM
